Measured values reported in publication PMC11007441, “Deciphering the role of Enterococcus faecium cytidine deaminase in gemcitabine resistance of gallbladder cancer” (The Journal of Biological Chemistry, 2024).

Experiments:
[1] = system: Nc1ccn([C@@H]2O[C@H](CO)[C@@H](O)C2(F)F)c(=O)n1; test: purified protein; conditions: 0.2 uM enzyme; gemcitabine 0.5-8 mM; initial rates 0-1 min
[2] = biological target: the molecule itself; test: crystal structure; vapor diffusion, EfCDA at 15 mg/ml; apo-I (0.1 M Tris pH 8.5, 2.2 M (NH4)2SO4), apo-II (0.1 M sodium cacodylate pH 6.5, 20% PEG 4000) and complex with dFdU (co-crystallised with gemcitabine 1:10); tetramer from two molecules of the asymmetric unit by crystal symmetry

| Molecule | Km [1] | stoichiometry N [2] |
| --- | --- | --- |
| EfCDA (cytidine deaminase of Enterococcus faecium) (Enterococcus lactis) | 8.44 mM |  |
| cytidine deaminase of Enterococcus faecium (EfCDA) (enzyme, UniProt Q3XXR8 1-132, looked up, cytidine deaminase of Enterococcus faecium, full-length protein with a single CDA catalytic domain, 132 amino acids; UniProt A0A133N269, WP_002291109.1; Homotetramer in the crystal: molecules A and B in the asymmetric unit, the tetramer completed by a symmetry operation; One zinc ion per chain (C55, C88, C91); also called EfCDD; T-CDA; source: E. coli BL21 (DE3), purified (HisTrap HP, HiTrap Q, …)) MAELKQEWINTAIEALDKAYVPYSHFPVGACLVTESGKIYQGINIENASFGLTNCAERTAFFKAVSEGEKTFTHLVVAGHTPDPISPCGACRQVMAEFCSPDMPVTLVGDNGVTKATTVRALLPYAFTEKDL |  | 4 |
